Positions count from the first letter of the chain named.
B1: 222 (protein)
chain: STAITQEGAAPAAILHPEKWPRPATQRLIDPAVEKRVDALLKQLSVEEKVGQVIQGDIGTITPEDLRKYPLGSILAGGDSGPNGDDRAPPKEWLDLADAFYRVSLEKRPGHTPIPVLFGIDAVHGHGNIGSATIFPHNIALGMTRDPELLRRIGEVTAEEMAATGIDWTFAPALSVVRDDRWGRTYEGFSEDPEIVASYSAAIVEGVQGKYGSKDFMAPGRIVASAKHFLADGGTDQGRDQGDARISEDELIRIHNAGYPPAIDAGVLTVMASFSSWQGIKHHGHKQLLTDVLKGQMGFNGFIVGDWNAHDQVPGCTKFNCPTSLIAGLDMYMAADSWKQLYENTLAQVKDGTIPMARLDDAVRRILRVKVLAGLFEKPAPKDRPGLPGLETLGSPEHRAVGREAVRKSLVLLKNDKGTLPLSPKARVLVAGDGADNIGKQSGGWTISWQGTGNRNDEFPGATSILGGIRDAVADAGGSVEFDVAGQYKTKPDVAIVVFGEEPYAEFQGDVETLEYQPDQKQDLALLKKLKDQGIPVVAVFLSGRPMWVNPELNASDAFVAAWLPGTEGGGVADVLFTDKAGKVQHDFAGKLSYSWPRTAAQTTVNRGDADYNPLFAYGYGLTYKDKSKVGTLPEESGVP
B2: 428 (protein)
chain: SAAITQEGAAPAAMLHPEKWPRPATQRLIDPAVEKRVDALLKQLSVEEKVGQVIQGDIGTITPEDLRKYPLGSILAGGDSGPNGDDRAPPKEWLDLADAFYRVSLEKRPGHTPIPVLFGIDAVHGHNNIGSATIFPHNIALGMTRDPELLRRIGEVTAEEMAATGIDWTFAPALSVPRDDRWGRTYEGFSEDPEIVASYSAAIVEGFQGKYGSKDFMAPGRAVACAKHFLADGGTDQGRDQGDARISEDELIRIHNAGYPPAIDAGVLTVMASFSSWQGIKHHGHKQLLTDVLKGQMGFNGFIVGDWNAHDQVPGCTKFNCPTSLIAGLDMYMAADSWKQLYENTLAQVKDGTIPMARLDDAVRRILRVKVLAGLFEKPAPKDRPGLPGLETLGSPEHRTVGREAVRKSLVLLKNDKGTLPLSPKARVLVAGDGADNIGKQSGGWTISWQGTGNRNDEFPGATSILGGIRDAVADAGGSVEFDVAGQYKTKPDVAIVVFGEEPYAEFQGDVETLEYQPDQKQDLTLLKKLKDQGIPVVAVFLSGRPMWVNPELNASDAFVAAWLPGTEGGGVADVLFTDKAGKVQHDFAGKLSYSWPRTAAQTTVNRGDADYNPLFAYGYGLTYKDKSKVGTLPEESGVPAEARQNAGIYFRAGALRLPGRFL
modifications: truncated; signal peptide F-10T
B3: 399 (protein)
chain: B2 chain with A3R, P109D, M356T, T400A, Q508R
modifications: truncated; signal peptide F-10T
B4: 402 (protein)
chain: B2 chain with A3R, A13P, P147T, I203Y, T400A, Q508R, T525S, H586Y
modifications: truncated; signal peptide F-10T, K-21R
B5: 432 (protein)
chain: B2 chain with A3R, P147T, I203Y, T400A, E502N, Q508R, H586Y
modifications: truncated; signal peptide F-10T, I-14V
B6: 396 (protein)
chain: B2 chain with I4S, T400A, Q508R, A601V
modifications: truncated; signal peptide F-10T
B7: 403 (protein)
chain: B2 chain with A13P, P109D, T400A, Q508R
modifications: truncated; signal peptide F-10T
B8: 434 (protein)
chain: B2 chain with A13P, P177V, I203Y, E502N, Q508R
modifications: truncated; signal peptide F-10T
B9: 404 (protein)
chain: B2 chain with A13P, P109D, N128K, T400A, Q508R, P597A
modifications: truncated; signal peptide F-10T
B10: 398 (protein)
chain: B2 chain with A3R, S213T, T400A, Q508R
modifications: truncated; signal peptide F-10T
B11: 430 (protein)
chain: B2 chain with P109D, T400A, Q508R
modifications: truncated; signal peptide F-10T
B12: 431 (protein)
chain: B2 chain with A13P, P109D, T400A, Q508R, T525S
modifications: truncated; signal peptide F-10T
B13: 400 (protein)
chain: B2 chain with P177V, I203Y, M356T, T400A, Q508R, N646K
modifications: truncated; signal peptide F-10T
B14: 433 (protein)
chain: B2 chain with A3R, T400A, Q508R
modifications: truncated; signal peptide F-10T
B15: 395 (protein)
chain: B2 chain with A3R, I61V, T400A, Q508R
modifications: truncated; signal peptide F-10T
B16: 429 (protein)
chain: B2 chain with A13P, P147T, P177V, I203Y, T400A, Q508R, H586Y
modifications: truncated; signal peptide F-10T
B17: 393 (protein)
chain: B2 chain with A3R, I4S, T400A, Q508R
modifications: truncated; signal peptide F-10T
B18: 397 (protein)
chain: B2 chain with A3R, M161V, P177V, I203Y, A222I, D383G, T400A, Q508R
modifications: truncated; signal peptide F-10T
B19: 401 (protein)
chain: B2 chain with T25A, N128H, I203Y, T400A, Q508R, T525S
modifications: truncated; signal peptide F-10T

Assay: High throughput cellobiose assay: fold improvement in cellobiase activity of CelA variants over a control enzyme (Tables 2A-2D, 3, 5, 6, 7)
Format: biochemical
Conditions: 3.3 g/l cellobiose, 55° C. and pH 5.3 (incubation overnight)

| Molecule | Fold improvement over Control Variant No. 94 from Table 2B |
| --- | --- |
| B1 | ++++ (++++ = 1.1 to 1.5 fold improvement over Control No. 3, Variant No. 94) |

Same assay, conditions: 3.3 g/l cellobiose, 65° C. and pH 5 (incubation overnight); relative to Control #5, Variant No. 366 (SEQ ID NO: 9)

| Molecule | Fold Improvement over Control Variant |
| --- | --- |
| B2 | ++ (++ = 1.1 to 2.0 fold improvement over control Variant No. 366) |
| B3 | ++ (++ = 1.1 to 2.0 fold improvement over control Variant No. 366) |
| B4 | ++ (++ = 1.1 to 2.0 fold improvement over control Variant No. 366) |
| B5 | ++ (++ = 1.1 to 2.0 fold improvement over control Variant No. 366) |
| B6 | ++ (++ = 1.1 to 2.0 fold improvement over control Variant No. 366) |
| B7 | ++ (++ = 1.1 to 2.0 fold improvement over control Variant No. 366) |
| B8 | ++ (++ = 1.1 to 2.0 fold improvement over control Variant No. 366) |
| B9 | ++ (++ = 1.1 to 2.0 fold improvement over control Variant No. 366) |
| B10 | ++ (++ = 1.1 to 2.0 fold improvement over control Variant No. 366) |
| B11 | ++ (++ = 1.1 to 2.0 fold improvement over control Variant No. 366) |
| B12 | ++ (++ = 1.1 to 2.0 fold improvement over control Variant No. 366) |
| B13 | ++ (++ = 1.1 to 2.0 fold improvement over control Variant No. 366) |
| B14 | ++ (++ = 1.1 to 2.0 fold improvement over control Variant No. 366) |
| B15 | ++ (++ = 1.1 to 2.0 fold improvement over control Variant No. 366) |
| B16 | ++ (++ = 1.1 to 2.0 fold improvement over control Variant No. 366) |
| B17 | ++ (++ = 1.1 to 2.0 fold improvement over control Variant No. 366) |
| B18 | ++ (++ = 1.1 to 2.0 fold improvement over control Variant No. 366) |
| B19 | ++ (++ = 1.1 to 2.0 fold improvement over control Variant No. 366) |

From patent publication US8357523B2, “Beta-glucosidase variant enzymes and related polynucleotides” (Codexis, Inc., priority 2009, dated 2013)
